Assay results as given in publication doi:10.1101/2022.05.13.491168.

Legend:
[1] = target: CvkR (Cas V-K repressor, Alr3614) of Anabaena (Nostoc) sp. PCC 7120 (Anabaena (Nostoc) sp. PCC 7120); test: SEC
CvkR (Alr3614) = CvkR (Alr3614) (Anabaena (Nostoc) sp. PCC 7120, UniProt A0ACD6B984 19-168); test: EMSA

Molecule	stoichiometry N [1]	binding result (CvkR (Alr3614))
CvkR (Cas V-K repressor, Alr3614) of Anabaena (Nostoc) sp. PCC 7120 (natural protein)	2	–
Pcas12k (P82) (dsDNA) DNA 1: AAGAAACATCCTATAGAAGCATCTTCTAAAACACATTAGTGCTTTGTATAACATTATGTGTTTTGTATGGTATTTTATTTTT DNA 2: AAAAATAAAATACCATACAAAACACATAATGTTATACAAAGCACTAATGTGTTTTAGAAGATGCTTCTATAGGATGTTTCTT	–	binds
